Data published in article PMC4231456, “HIV-1 Tat protein binds to TLR4-MD2 and signals to induce TNF-α and IL-10” (Retrovirology, 2013).

B1: recombinant human MD2 (natural protein, UniProt Q9Y6Y9 19-160, looked up)
chain: QKQYWVCNSSDASISYTYCDKMQYPISINVNPCIELKRSKGLLHIFYIPRRDLKQLYFNLYITVNTMNLPKRKEVICRGSDDDYSFCRALKGETVNTTISFSFKGIKFSKGKYKCVVEAISGSPEEMLFCLEFVILHQPNSN
notes: human MD2 (lymphocyte antigen 96), soluble recombinant; No catalogue number printed; also called rhMD2; hMD2; source: bought: R&D Systems

Legend:
[1] = target: GST-Tat 1-101 (HIV-1 Tat protein) (HIV-1); assay: ELISA; competition: GST-Tat 1-101 or GST-Tat 1-45 (0.1 μM) pre-incubated 1 h at 37°C with increasing amounts of soluble rhMD2, rhTLR4-MD2, rhTLR4 or rhCD14, then 2 h on coated rhMD2 (or TLR4-MD2); OD 450 nm; K0.5 taken as an apparent dissociation constant
recombinant human TLR4 = target: T1, recombinant human TLR4 (human, UniProt O00206 24-631); assay: ELISA; rh TLR4 coated at 1 μg/ml; MD2 at 1-10 μg/ml in solution; detected with anti-MD2 monoclonal antibodies; settings: both partners purified
T1 construct: human Toll-like receptor 4 (TLR4), recombinant, used coated or soluble without MD2; also called rhTLR4; rh TLR4
T1 sequence (O00206 24-631): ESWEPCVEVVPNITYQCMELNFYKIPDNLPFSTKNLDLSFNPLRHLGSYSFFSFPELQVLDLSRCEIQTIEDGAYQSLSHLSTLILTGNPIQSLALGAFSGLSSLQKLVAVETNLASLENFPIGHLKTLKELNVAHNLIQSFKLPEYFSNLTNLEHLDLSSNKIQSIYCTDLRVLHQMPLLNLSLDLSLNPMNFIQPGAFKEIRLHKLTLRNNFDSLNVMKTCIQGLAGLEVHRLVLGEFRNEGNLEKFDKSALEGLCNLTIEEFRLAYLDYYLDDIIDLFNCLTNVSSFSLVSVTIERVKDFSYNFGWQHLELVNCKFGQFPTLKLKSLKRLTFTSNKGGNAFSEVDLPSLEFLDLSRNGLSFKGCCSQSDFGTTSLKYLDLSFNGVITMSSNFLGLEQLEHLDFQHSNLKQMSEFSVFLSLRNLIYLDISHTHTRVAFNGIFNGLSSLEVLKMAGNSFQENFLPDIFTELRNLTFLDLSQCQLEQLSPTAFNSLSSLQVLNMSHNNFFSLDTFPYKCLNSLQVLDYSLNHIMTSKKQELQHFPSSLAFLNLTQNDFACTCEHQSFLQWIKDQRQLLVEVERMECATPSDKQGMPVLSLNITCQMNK

GST-Tat 1-101 (HIV-1 Tat protein) (HIV-1), sequence (P04614 whole entry): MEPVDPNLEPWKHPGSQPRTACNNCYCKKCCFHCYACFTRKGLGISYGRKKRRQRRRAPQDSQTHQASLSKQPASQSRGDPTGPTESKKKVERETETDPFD

Molecule	IC50 [1] [nM]	percent inhibition of Tat binding to coated MD2 with soluble MD2 at 1 μg/ml [1] [%]	binding result (recombinant human TLR4)
recombinant human TLR4-MD2 complex (from UniProt O00206 24-631; Q9Y6Y9 19-160)	1	–	–
B1	4	> 95	binds
